B1: NAD-dependent protein deacetylase sirtuin-1 (Mus musculus), Q923E4 (parent)
chain: MADEVALALQAAGSPSAAAAMEAASQPADEPLRKRPRRDGPGLGRSPGEPSAAVAPAAAGCEAASAAAPAALWREAAGAAASAEREAPATAVAGDGDNGSGLRREPRAADDFDDDEGEEEDEAAAAAAAAAIGYRDNLLLTDGLLTNGFHSCESDDDDRTSHASSSDWTPRPRIGPYTFVQQHLMIGTDPRTILKDLLPETIPPPELDDMTLWQIVINILSEPPKRKKRKDINTIEDAVKLLQECKKIIVLTGAGVSVSCGIPDFRSRDGIYARLAVDFPDLPDPQAMFDIEYFRKDPRPFFKFAKEIYPGQFQPSLCHKFIALSDKEGKLLRNYTQNIDTLEQVAGIQRILQCHGSFATASCLICKYKVDCEAVRGDIFNQVVPRCPRCPADEPLAIMKPEIVFFGENLPEQFHRAMKYDKDEVDLLIVIGSSLKVRPVALIPSSIPHEVPQILINREPLPHLHFDVELLGDCDVIINELCHRLGGEYAKLCCNPVKLSEITEKPPRPQKELVHLSELPPTPLHISEDSSSPERTVPQDSSVIATLVDQATNNNVNDLEVSESSCVEEKPQEVQTSRNVENINVENPDFKAVGSSTADKNERTSVAETVRKCWPNRLAKEQISKRLEGNQYLFVPPNRYIFHGAEVYSDSEDDVLSSSSCGSNSDSGTCQSPSLEEPLEDESEIEEFYNGLEDDTERPECAGGSGFGADGGDQEVVNEAIATRQELTDVNYPSDKS
partner: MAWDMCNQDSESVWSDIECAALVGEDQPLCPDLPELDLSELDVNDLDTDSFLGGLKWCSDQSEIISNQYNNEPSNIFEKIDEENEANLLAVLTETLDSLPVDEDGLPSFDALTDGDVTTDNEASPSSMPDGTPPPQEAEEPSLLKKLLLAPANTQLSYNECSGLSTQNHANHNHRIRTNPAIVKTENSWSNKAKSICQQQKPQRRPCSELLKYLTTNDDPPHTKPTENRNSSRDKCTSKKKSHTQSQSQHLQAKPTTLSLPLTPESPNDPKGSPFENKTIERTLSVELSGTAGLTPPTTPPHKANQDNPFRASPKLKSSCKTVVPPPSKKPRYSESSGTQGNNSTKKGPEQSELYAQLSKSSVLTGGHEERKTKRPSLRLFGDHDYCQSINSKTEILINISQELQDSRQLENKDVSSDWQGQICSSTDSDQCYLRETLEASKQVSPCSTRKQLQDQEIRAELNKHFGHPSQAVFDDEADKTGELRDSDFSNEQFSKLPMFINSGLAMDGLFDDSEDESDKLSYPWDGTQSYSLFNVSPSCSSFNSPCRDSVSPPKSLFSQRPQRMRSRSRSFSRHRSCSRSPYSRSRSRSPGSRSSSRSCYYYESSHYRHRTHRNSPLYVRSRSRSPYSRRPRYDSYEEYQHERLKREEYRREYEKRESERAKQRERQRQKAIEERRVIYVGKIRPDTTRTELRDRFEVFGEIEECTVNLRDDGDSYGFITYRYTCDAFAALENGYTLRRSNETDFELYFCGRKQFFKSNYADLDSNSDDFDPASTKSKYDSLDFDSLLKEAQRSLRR

Variants of: B1
Conditions: with prgc1_human PPARGC1A

| Variant | effect of a mutation on the interaction |
| --- | --- |
| H355A | decreasing interaction |

— IntAct's records for PubMed 15744310
